The results in this text go back to patent publication US5817490A, “Enzymatic process for the manufacture of ascorbic acid 2-keto-L-gulonic acid and esters of 2-keto-L-gulonic acid” (Eastman Chemical Company, priority 1997, dated 1998).

This data set can be described thus: enzyme screen for hydrolysis/methanolysis of butyl-KLG (HPLC of products and remaining substrate). On the set-up: KLG formed / MeKLG formed / ASA formed / BuKLG (remaining substrate): unit: ppm. The class given is biochemical. Here is the method:
Initial enzyme screens were carried out as follows. Enzyme (typically 10 mg), aqueous buffer (typically 860 microliters (ul) or 550 ul), aqueous 0.2M CaCl2 (10 ul), methanol (typically 90 ul or 400 ul), and an aqueous solution of substrate (typically 90 ul of butyl-KLG at a typical concentration of 110,000 ppm) were added to a 2 ml polypropylene centrifuge tube. The resulting solution was vortexed briefly and placed on a shaker bath at 300 rpm at 38° C. (typically for 18 hours or more). After incubation, samples were centrifuged at 14,000 G's (14,000 times gravity) for 20 minutes to remove enzyme, sampled (300 ul), and diluted to one milliliter with distilled water. If not analyzed by HPLC within the day, samples were frozen prior to analysis.
The data were reported in terms of parts per million of KLG, MeKLG, ascorbic acid (ASA) and butyl-KLG. […] Samples labeled as "no enzyme" were controls within a given run. The controls contained substrate but no enzyme and thus represented experimental and HPLC background data.

[1] abbreviates: Table 3: 38° C., 16 Hours, 38% Methanol-Water, 0.1M MES Buffer.
Where [2] appears, read: Table 8: 38° C., 21 Hours, 8.6% Methanol-Water, 0.2 M MES.
The mark [3] stands for this setting: Table 4: 38° C., 47.5 Hours, 38% Methanol-Water, 0.1M MES Buffer.
Where [4] appears, read: Table 7: 38° C., 19 Hours, 8.6% Methanol-Water, 0.1M MES.

B1: Rhizoipus Delmar Lipase: Rhizoipus Delmar Lipase (protein, UniProt P61872 96-392, looked up)
Lipase: DDNLVGGMTLDLPSDAPPISLSSSTNSASDGGKVVAATTAQIQEFTKYAGIAATAYCRSVVPGNKWDCVQCQKWVPDGKIITTFTSLLSDTNGYVLRSDKQKTIYLVFRGTNSFRSAITDIVFNFSDYKPVKGAKVHAGFLSSYEQVVNDYFPVVQEQLTAHPTYKVIVTGHSLGGAQALLAGMDLYQREPRLSPKNLSIFTVGGPRVGNPTFAYYVESTGIPFQRTVHKRDIVPHVPPQSFGFLHPGVESWIKSGTSNVQICTSEIETKDCSNSIVPFTSILDHLSYFDINEGSCL
For B1, under setting [1], the ASA formed is reported as 1 ppm, the “BuKLG (remaining substrate)” value was 7392 ppm, the KLG formed was determined as 51 ppm and the MeKLG formed is 99 ppm. For the same molecule, under setting [2], the ASA formed was 0 ppm, the “BuKLG (remaining substrate)” value was determined as 7097 ppm, the KLG formed was 178 ppm and the MeKLG formed was 0 ppm.

B2: Rhizopus Niveus Lipase: Rhizopus Niveus Lipase (protein, UniProt P61871 96-392, looked up)
Lipase: DDNLVGGMTLDLPSDAPPISLSSSTNSASDGGKVVAATTAQIQEFTKYAGIAATAYCRSVVPGNKWDCVQCQKWVPDGKIITTFTSLLSDTNGYVLRSDKQKTIYLVFRGTNSFRSAITDIVFNFSDYKPVKGAKVHAGFLSSYEQVVNDYFPVVQEQLTAHPTYKVIVTGHSLGGAQALLAGMDLYQREPRLSPKNLSIFTVGGPRVGNPTFAYYVESTGIPFQRTVHKRDIVPHVPPQSFGFLHPGVESWIKSGTSNVQICTSEIETKDCSNSIVPFTSILDHLSYFDINEGSCL
For B2, under setting [1], the ASA formed is recorded as 17 ppm, the “BuKLG (remaining substrate)” value turned out to be 10453 ppm, the KLG formed came to 80 ppm and the MeKLG formed is recorded as 252 ppm. Moreover, under setting [2], the ASA formed was determined as 61 ppm, the “BuKLG (remaining substrate)” value is given as 7102 ppm, the KLG formed was found to be 178 ppm and the MeKLG formed was 181 ppm.

B3: Mucor meihei Lipase: Mucor meihei Lipase (protein, UniProt P19515 95-363, looked up)
Lipase: SIDGGIRAATSQEINELTYYTTLSANSYCRTVIPGATWDCIHCDATEDLKIIKTWSTLIYDTNAMVARGDSEKTIYIVFRGSSSIRNWIADLTFVPVSYPPVSGTKVHKGFLDSYGEVQNELVATVLDQFKQYPSYKVAVTGHSLGGATALLCALDLYQREEGLSSSNLFLYTQGQPRVGDPAFANYVVSTGIPYRRTVNERDIVPHLPPAAFGFLHAGEEYWITDNSPETVQVCTSDLETSDCSNSIVPFTSVLDHLSYFGINTGLCT
Turning to B3, under setting [3], the ASA formed was determined as 108 ppm, the “BuKLG (remaining substrate)” value turned out to be 7041 ppm, the KLG formed is listed as 54 ppm and the MeKLG formed was found to be 189 ppm. Under setting [4], the ASA formed is given as 156, the “BuKLG (remaining substrate)” value was determined as 8620, the KLG formed was 229 and the MeKLG formed was found to be 278. Besides, under setting [2], the ASA formed is on record as 54 ppm, the “BuKLG (remaining substrate)” value was 7067 ppm, the KLG formed stood at 243 ppm and the MeKLG formed came to 283 ppm.

B4: Porcine Pancreatic Lipase: Porcine Pancreatic Lipase (protein, UniProt P00591 1-450, looked up)
Pancreatic triacylglycerol …: SEVCFPRLGCFSDDAPWAGIVQRPLKILPWSPKDVDTRFLLYTNQNQNNYQELVADPSTITNSNFRMDRKTRFIIHGFIDKGEEDWLSNICKNLFKVESVNCICVDWKGGSRTGYTQASQNIRIVGAEVAYFVEVLKSSLGYSPSNVHVIGHSLGSHAAGEAGRRTNGTIERITGLDPAEPCFQGTPELVRLDPSDAKFVDVIHTDAAPIIPNLGFGMSQTVGHLDFFPNGGKQMPGCQKNILSQIVDIDGIWEGTRDFVACNHLRSYKYYADSILNPDGFAGFPCDSYNVFTANKCFPCPSEGCPQMGHYADRFPGKTNGVSQVFYLNTGDASNFARWRYKVSVTLSGKKVTGHILVSLFGNEGNSRQYEIYKGTLQPDNTHSDEFDSDVEVGDLQKVKFIWYNNNVINPTLPRVGASKITVERNDGKVYDFCSQETVREEVLLTLNPC
For the molecule B4, under setting [1], the ASA formed was determined as 49 ppm, the “BuKLG (remaining substrate)” value stood at 10709 ppm, the KLG formed amounted to 81 ppm and the MeKLG formed came out at 316 ppm. Further, under setting [3], the ASA formed turned out to be 222 ppm, the “BuKLG (remaining substrate)” value was determined as 10899 ppm, the KLG formed amounted to 229 ppm and the MeKLG formed came to 613 ppm. For the same molecule, under setting [4], the ASA formed stood at 314, the “BuKLG (remaining substrate)” value is 7888, the KLG formed was 333 and the MeKLG formed was 291. Moreover, under setting [2], the ASA formed turned out to be 78 ppm, the “BuKLG (remaining substrate)” value is given as 6860 ppm, the KLG formed was 303 ppm and the MeKLG formed came out at 320 ppm.

B5: L-7 (Porcine pancreas): Lipase (Porcine pancreas) (protein, UniProt P00591 1-450, looked up)
Pancreatic triacylglycerol …: SEVCFPRLGCFSDDAPWAGIVQRPLKILPWSPKDVDTRFLLYTNQNQNNYQELVADPSTITNSNFRMDRKTRFIIHGFIDKGEEDWLSNICKNLFKVESVNCICVDWKGGSRTGYTQASQNIRIVGAEVAYFVEVLKSSLGYSPSNVHVIGHSLGSHAAGEAGRRTNGTIERITGLDPAEPCFQGTPELVRLDPSDAKFVDVIHTDAAPIIPNLGFGMSQTVGHLDFFPNGGKQMPGCQKNILSQIVDIDGIWEGTRDFVACNHLRSYKYYADSILNPDGFAGFPCDSYNVFTANKCFPCPSEGCPQMGHYADRFPGKTNGVSQVFYLNTGDASNFARWRYKVSVTLSGKKVTGHILVSLFGNEGNSRQYEIYKGTLQPDNTHSDEFDSDVEVGDLQKVKFIWYNNNVINPTLPRVGASKITVERNDGKVYDFCSQETVREEVLLTLNPC
With B5, under setting [3], the ASA formed came to 120 ppm, the “BuKLG (remaining substrate)” value amounted to 5488 ppm, the KLG formed came out at 94 ppm and the MeKLG formed is listed as 884 ppm. Also, under setting [4], the ASA formed is on record as 106, the “BuKLG (remaining substrate)” value is reported as 5392, the KLG formed amounted to 1007 and the MeKLG formed was found to be 575.

B6: Subtilisin Carlsberg: Subtilisin Carlsberg (a protease) (protein, UniProt P00780 106-379, looked up)
Subtilisin Carlsberg: AQTVPYGIPLIKADKVQAQGFKGANVKVAVLDTGIQASHPDLNVVGGASFVAGEAYNTDGNGHGTHVAGTVAALDNTTGVLGVAPSVSLYAVKVLNSSGSGSYSGIVSGIEWATTNGMDVINMSLGGASGSTAMKQAVDNAYAKGVVVVAAAGNSGSSGNTNTIGYPAKYDSVIAVGAVDSNSNRASFSSVGAELEVMAPGAGVYSTYPTNTYATLNGTSMASPHVAGAAALILSKHPNLSASQVRNRLSSTATYLGSSFYYGKGLINVEAAAQ
In the case of B6, under “Example 4: 38% methanol-water, MES, pH 5 to 5.8”, the “levels of activity / conversion of butyl-KLG” value is on record as “particularly high levels of activity”. Moreover, under setting [3], the ASA formed is recorded as 0 ppm, the “BuKLG (remaining substrate)” value stood at 0 ppm, the KLG formed is listed as 3072 ppm and the MeKLG formed is 47 ppm. Moreover, under setting [4], the ASA formed was 0, the “BuKLG (remaining substrate)” value turned out to be 4428, the KLG formed was 4463 and the MeKLG formed is 93.

B7: Humicola lanuginosa Lipase: Humicola lanuginosa Lipase (protein, UniProt O59952 23-291, looked up)
Lipase: EVSQDLFNQFNLFAQYSAAAYCGKNNDAPAGTNITCTGNACPEVEKADATFLYSFEDSGVGDVTGFLALDNTNKLIVLSFRGSRSIENWIGNLNFDLKEINDICSGCRGHDGFTSSWRSVADTLRQKVEDAVREHPDYRVVFTGHSLGGALATVAGADLRGNGYDIDVFSYGAPRVGNRAFAEFLTVQTGGTLYRITHTNDIVPRLPPREFGYSHSSPEYWIKSGTLVPVTRNDIVKIEGIDATGGNNQPNIPDIPAHLWYFGLIGTCL
Take B7: under setting [1], the ASA formed amounted to 6 ppm, the “BuKLG (remaining substrate)” value came to 10191 ppm, the KLG formed came to 63 ppm and the MeKLG formed worked out at 90 ppm. Further, under setting [3], the ASA formed is given as 42 ppm, the “BuKLG (remaining substrate)” value is listed as 8017 ppm, the KLG formed was found to be 129 ppm and the MeKLG formed is listed as 241 ppm. Under setting [2], the ASA formed came to 10 ppm, the “BuKLG (remaining substrate)” value was 7215 ppm, the KLG formed is recorded as 176 ppm and the MeKLG formed amounted to 129 ppm.
